Results from article PMC7820937.
Read-outs that look alike come from different tables or passages of the source.

Experiments:
Experiment in all cases: ELISA
[1] = target: C4BP α-chain deletant ΔCCP8 (human) (UniProt P04003)
[2] = target: C4BP α-chain deletant ΔCCP6 (human) (UniProt P04003)
[3] = target: C4BP α-chain deletant ΔCCP5 (human) (UniProt P04003)
[4] = target: C4BP α-chain deletant ΔCCP4 (human) (UniProt P04003)
[5] = target: C4BP α-chain deletant ΔCCP7 (human) (UniProt P04003)
[6] = target: C4BP α-chain deletant ΔCCP2 (human) (UniProt P04003)
[7] = target: C4BP α-chain deletant ΔCCP3 (human) (UniProt P04003)
[8] = target: C4BP α-chain deletant ΔCCP1 (human) (UniProt P04003)
[9] = target: C4BP α-chain deletant ΔCCP5 (human) (UniProt P04003); remark: listed apart in the source
[10] = target: C4BP α-chain deletant ΔCCP4 (human) (UniProt P04003); remark: listed apart in the source

Row | Substance | percent loss of binding against full-length C4BP [1] [%] | percent increase of binding against full-length C4BP [2] [%] | percent loss of binding against full-length C4BP [3] [%] | percent loss of binding against full-length C4BP [4] [%] | percent loss of binding against full-length C4BP [5] [%] | percent loss of binding against full-length C4BP [6] [%] | percent increase of binding against full-length C4BP [7] [%] | percent loss of binding against full-length C4BP [8] [%] | percent loss of binding against full-length C4BP [9] [%] | percent loss of binding against full-length C4BP [10] [%]
1 | Influenza A virus A/HK/99 (H3N2), whole virus particles (complex) | 75 | 10 | 80 | 80 | 62 | 80 | 10 | 80 |  | 
2 | Influenza A virus A/England/2009 (H1N1), whole virus particles (complex) | 75 | 10 | 60 | 60 | 49 | 20 | 10 | 20 | 67 | 67
